Assay results from patent US20110200608A1.

Biological target: high molecular weight-melanoma associated antigen (HMW-MAA), human (human) (UniProt Q6UVK1)
Assay: competition cell ELISA on HMW-MAA+ SK-MEL-28 cells, 1 h at 4 °C, SA-HRP; competitor: biotinylated scFv C21 (0.25 µg/well); axis gives µg of mAb, not a concentration

high molecular weight-melanoma associated antigen (HMW-MAA), human (human), sequence (Q6UVK1 30-2322): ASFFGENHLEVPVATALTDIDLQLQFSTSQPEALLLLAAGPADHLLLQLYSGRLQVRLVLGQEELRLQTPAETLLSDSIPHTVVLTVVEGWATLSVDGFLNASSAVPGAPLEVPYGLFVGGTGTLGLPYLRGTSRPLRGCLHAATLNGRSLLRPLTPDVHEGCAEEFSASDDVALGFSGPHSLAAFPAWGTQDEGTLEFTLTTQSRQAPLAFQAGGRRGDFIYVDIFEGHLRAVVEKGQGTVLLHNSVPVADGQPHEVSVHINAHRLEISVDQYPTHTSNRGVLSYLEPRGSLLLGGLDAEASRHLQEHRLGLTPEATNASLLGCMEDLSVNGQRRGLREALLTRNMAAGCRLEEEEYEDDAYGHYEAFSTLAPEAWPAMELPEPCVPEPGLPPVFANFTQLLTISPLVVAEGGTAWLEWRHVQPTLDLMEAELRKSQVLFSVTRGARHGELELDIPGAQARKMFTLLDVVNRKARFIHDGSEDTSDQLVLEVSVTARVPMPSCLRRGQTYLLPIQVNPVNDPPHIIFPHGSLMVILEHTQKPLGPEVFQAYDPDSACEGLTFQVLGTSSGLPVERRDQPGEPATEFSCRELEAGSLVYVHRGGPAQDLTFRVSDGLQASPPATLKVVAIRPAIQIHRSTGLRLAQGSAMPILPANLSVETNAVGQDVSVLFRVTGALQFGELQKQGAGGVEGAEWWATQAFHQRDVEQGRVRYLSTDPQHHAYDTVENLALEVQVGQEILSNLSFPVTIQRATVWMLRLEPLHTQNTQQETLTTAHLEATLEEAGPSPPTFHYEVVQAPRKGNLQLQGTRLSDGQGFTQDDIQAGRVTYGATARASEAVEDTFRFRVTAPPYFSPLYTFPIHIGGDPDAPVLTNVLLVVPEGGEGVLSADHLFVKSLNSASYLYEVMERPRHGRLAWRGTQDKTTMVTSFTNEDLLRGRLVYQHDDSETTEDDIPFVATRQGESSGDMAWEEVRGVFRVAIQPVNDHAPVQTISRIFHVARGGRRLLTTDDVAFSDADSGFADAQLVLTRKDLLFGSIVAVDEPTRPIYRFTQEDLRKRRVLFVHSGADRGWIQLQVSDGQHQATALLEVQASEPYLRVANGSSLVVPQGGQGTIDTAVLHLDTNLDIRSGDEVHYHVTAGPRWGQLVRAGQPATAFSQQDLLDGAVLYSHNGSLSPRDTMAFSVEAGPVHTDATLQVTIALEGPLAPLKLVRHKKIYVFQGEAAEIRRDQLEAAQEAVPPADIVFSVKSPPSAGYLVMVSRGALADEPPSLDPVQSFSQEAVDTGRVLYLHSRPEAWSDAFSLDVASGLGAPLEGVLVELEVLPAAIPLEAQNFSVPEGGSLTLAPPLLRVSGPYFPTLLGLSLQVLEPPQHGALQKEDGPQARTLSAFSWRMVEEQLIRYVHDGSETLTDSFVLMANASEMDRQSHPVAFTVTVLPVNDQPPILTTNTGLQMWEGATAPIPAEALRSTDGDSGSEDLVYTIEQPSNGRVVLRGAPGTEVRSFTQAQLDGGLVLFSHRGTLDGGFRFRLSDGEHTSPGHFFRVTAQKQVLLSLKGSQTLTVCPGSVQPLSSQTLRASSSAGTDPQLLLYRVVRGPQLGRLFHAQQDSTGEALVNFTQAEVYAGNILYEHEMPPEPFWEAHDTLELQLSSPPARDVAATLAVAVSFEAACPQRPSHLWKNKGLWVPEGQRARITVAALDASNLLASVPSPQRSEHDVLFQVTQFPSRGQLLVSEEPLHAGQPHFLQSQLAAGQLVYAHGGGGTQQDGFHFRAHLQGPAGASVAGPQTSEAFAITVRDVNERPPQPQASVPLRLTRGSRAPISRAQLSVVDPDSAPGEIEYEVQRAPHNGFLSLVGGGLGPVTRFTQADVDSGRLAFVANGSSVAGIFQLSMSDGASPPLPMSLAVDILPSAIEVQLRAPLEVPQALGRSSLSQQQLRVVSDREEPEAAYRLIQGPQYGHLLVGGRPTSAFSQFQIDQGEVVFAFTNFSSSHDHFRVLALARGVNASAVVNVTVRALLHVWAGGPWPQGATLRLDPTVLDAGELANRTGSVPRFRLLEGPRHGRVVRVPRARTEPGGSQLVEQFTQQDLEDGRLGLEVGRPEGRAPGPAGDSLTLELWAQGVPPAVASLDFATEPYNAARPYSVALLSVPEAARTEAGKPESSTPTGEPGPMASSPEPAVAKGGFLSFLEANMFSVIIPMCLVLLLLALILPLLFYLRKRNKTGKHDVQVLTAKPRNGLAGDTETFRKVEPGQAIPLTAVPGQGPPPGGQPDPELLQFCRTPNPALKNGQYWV

IC50 (read off the curve): 0.03 µg
Substance: HMW-MAA-specific mouse mAb VF1-TP34 (antibody)
